B1: LINE1-mini (parent)
chain: GGCAGAGCUCAACACAGCGUGGCAAAGUGGCUGUGGCUAGACUGCC

Variants of: B1
Test: self-cleavage, relative activity (ratio to wild type); higher = more cleavage; in vitro, sequencing; the parent is a self-cleaving ribozyme

Going from A26C C46G to G40U C45U, the self-cleavage falls from 0.75 to 0.15.

Going from U20A G44A to G33A A41G, the self-cleavage falls from 0.51 to 0.11.

Compared with G30U U38G, A24G G33U is higher in self-cleavage: 0.03 for the first, 0.08 for the second.

Going from G1A G40A to U9A A41G, the self-cleavage falls from 0.11 to 0.05.

Compared with A16U A26G, A26U U32G is higher in self-cleavage: 0.06 for the first, 0.36 for the second.

Going from C15U C45G to G17U A26C, the self-cleavage rises from 0.2 to 0.23.

Going from C10U A25G to G27A G40U, the self-cleavage falls from 0.39 to 0.14.

First: G7A G33C
Second: C23A A41U
The self-cleavage of the first is lower: 0.12 for the first, 0.84 for the second.

Compared with G27A C31G, A26C A41U is higher in self-cleavage: 0.2 for the first, 0.72 for the second.

Compared with G5U U43G, C8U G17A is higher in self-cleavage: 0.1 for the first, 0.15 for the second.

First: C37U G44A
Second: C8A A39G
The self-cleavage of the first is higher: 0.1 for the first, 0.08 for the second.

Going from C23U C31A to A12C U43A, the self-cleavage falls from 0.24 to 0.03.

Going from G2A C37U to A16C C45A, the self-cleavage falls from 0.28 to 0.07.

First: A4C A25G
Second: C23A C31U
The self-cleavage of the first is lower: 0.12 for the first, 0.45 for the second.

Going from C8G A11C to G5C A24G, the self-cleavage rises from 0.02 to 0.06.

G29C G44A and A24C C42A are the same in self-cleavage: 0.15 for the first, 0.15 for the second.

First: G30U G36C
Second: G22C C31A
The self-cleavage of the first is lower: 0.11 for the first, 0.14 for the second.

First: C31U C37A
Second: U20G C42G
The self-cleavage of the first is lower: 0.09 for the first, 0.14 for the second.

Compared with A4G C10G, U32A A41G is lower in self-cleavage: 0.05 for the first, 0.04 for the second.

Going from C15G A25C to G27C G44U, the self-cleavage rises from 0.02 to 0.38.

Going from G1A U43A to A12G C18A, the self-cleavage falls from 0.05 to 0.03.

Compared with G30A A41U, U28C U34A is lower in self-cleavage: 0.6 for the first, 0.22 for the second.

First: C18A C42G
Second: A39U U43A
The self-cleavage of the first is lower: 0.04 for the first, 0.06 for the second.

Compared with U43G G44A, G7C A12G is lower in self-cleavage: 0.37 for the first, 0.06 for the second.

C10G C13U and C15A C37G are the same in self-cleavage: 0.04 for the first, 0.04 for the second.

First: A6U U32A
Second: A11G
The self-cleavage of the first is higher: 0.15 for the first, 0.04 for the second.

Going from G17U C18A to C8U A39U, the self-cleavage falls from 0.18 to 0.09.

Going from G17A C37G to C3U U28A, the self-cleavage rises from 0.05 to 0.4.

Compared with U9A U28A, A16G G29A is higher in self-cleavage: 0.17 for the first, 1.23 for the second.

Compared with C42A C45U, C15A G27U is lower in self-cleavage: 0.13 for the first, 0.09 for the second.

Compared with C3A A11G, A24G C37G is higher in self-cleavage: 0.06 for the first, 0.1 for the second.

Compared with G33A G40C, G2C G5C is lower in self-cleavage: 0.09 for the first, 0.02 for the second.

Going from U20G A24C to A25U A26U, the self-cleavage rises from 0.28 to 1.23.

Going from A11U U34G to C23A A26U, the self-cleavage rises from 0.02 to 0.88.

Going from G21C G22C to A6C C42A, the self-cleavage falls from 0.57 to 0.11.

Going from C15A A41G to C3G G27U, the self-cleavage rises from 0.06 to 0.32.

Compared with G1C G44U, C8G G44U is lower in self-cleavage: 0.06 for the first, 0.04 for the second.

Compared with C13A G19U, A11C G22U is lower in self-cleavage: 0.09 for the first, 0.07 for the second.

First: G5A G17A
Second: U20C G35A
The self-cleavage of the first is lower: 0.08 for the first, 0.1 for the second.

Going from G7U A41G to C3G U9G, the self-cleavage rises from 0.09 to 0.3.

Going from A4G G29A to G2U G17C, the self-cleavage falls from 0.36 to 0.05.

First: C10U G21U
Second: U9C C46A
The self-cleavage of the first is higher: 0.33 for the first, 0.03 for the second.

Going from U9G C31U to C13U A26U, the self-cleavage rises from 0.03 to 0.15.

Going from G1C A11C to C13A A14G, the self-cleavage rises from 0.01 to 0.08.

Going from C3U C37U to G7U G30A, the self-cleavage falls from 0.14 to 0.11.

First: A24C U28C
Second: G1C U28G
The self-cleavage of the first is higher: 0.69 for the first, 0.07 for the second.

Compared with G2A A16C, C8A U28C is higher in self-cleavage: 0.16 for the first, 0.25 for the second.

Going from C23A U34C to A25G G33C, the self-cleavage falls from 0.78 to 0.04.

First: G22U C23U
Second: G19C C46G
The self-cleavage of the first is higher: 1.8 for the first, 0.23 for the second.

Compared with U43G C45G, U9A G22U is higher in self-cleavage: 0.09 for the first, 0.11 for the second.

Going from U34A to A26G U34C, the self-cleavage falls from 0.1 to 0.08.

Going from C10U C37U to G5U C23G, the self-cleavage rises from 0.02 to 0.12.

Compared with U28A C42G, U28G G30U is higher in self-cleavage: 0.02 for the first, 0.77 for the second.

First: U28G G30C
Second: U20G G35C
The self-cleavage of the first is higher: 0.77 for the first, 0.11 for the second.

A25U U38G and A11U A14G are the same in self-cleavage: 0.03 for the first, 0.03 for the second.

First: G5A G19U
Second: G1U A16U
The self-cleavage of the first is higher: 0.11 for the first, 0.05 for the second.

Going from G7A G29A to G22C C45A, the self-cleavage rises from 0.09 to 0.39.

Compared with A4G A25U, C23U G40A is lower in self-cleavage: 0.62 for the first, 0.12 for the second.

Compared with A6G C13A, A25C G33C is lower in self-cleavage: 0.19 for the first, 0.04 for the second.

Compared with C23A G44A, G2A C10U is lower in self-cleavage: 0.61 for the first, 0.41 for the second.

G33C C42G and C8G U38C are the same in self-cleavage: 0.05 for the first, 0.05 for the second.

Compared with G29C G33A, G19C G27U is higher in self-cleavage: 0.12 for the first, 0.43 for the second.

Compared with G5U A11G, A12G G33U is higher in self-cleavage: 0.02 for the first, 0.12 for the second.

Going from C23U G35C to C8U C15G, the self-cleavage falls from 0.1 to 0.09.

Compared with C3G G17U, C13G A14C is lower in self-cleavage: 0.15 for the first, 0.05 for the second.

Going from A14U A39C to A12G U43C, the self-cleavage falls from 0.14 to 0.03.

First: A16G C31A
Second: G5A C42G
The self-cleavage of the first is lower: 0.03 for the first, 0.07 for the second.

Going from C18A U28C to C23G C42U, the self-cleavage falls from 0.49 to 0.47.

Going from G21U G29U to G21U G29A, the self-cleavage rises from 0.55 to 0.63.

Compared with C3A A14C, G1A C13G is lower in self-cleavage: 0.16 for the first, 0.1 for the second.

Going from G2A A6U to C8A A16G, the self-cleavage falls from 1 to 0.22.

Going from G19U A25U to G19U A25C, the self-cleavage falls from 0.67 to 0.61.

Going from G7C U20A to A26U G27C, the self-cleavage rises from 0.06 to 0.66.

First: U9G U34G
Second: G7A U28C
The self-cleavage of the first is lower: 0.05 for the first, 0.11 for the second.

Going from G5C G35C to U32G A39G, the self-cleavage rises from 0.06 to 0.8.

First: A4G G17C
Second: C18G G30A
The self-cleavage of the first is lower: 0.5 for the first, 0.92 for the second.

First: C18G G30U
Second: C31U U32G
The self-cleavage of the first is higher: 0.62 for the first, 0.06 for the second.

Compared with U9A C23G, A4C C8G is lower in self-cleavage: 0.16 for the first, 0.07 for the second.

First: U38A C45A
Second: U38A C45U
The self-cleavage of the first is lower: 0.2 for the first, 0.59 for the second.

Compared with C8U A24G, U9A C18A is lower in self-cleavage: 0.14 for the first, 0.1 for the second.

First: G27U U28C
Second: C13A U34C
The self-cleavage of the first is higher: 1.23 for the first, 0.06 for the second.

First: G40A U43A
Second: G1U A25U
The self-cleavage of the first is lower: 0.06 for the first, 0.45 for the second.

Going from C15G A16G to U38C C46U, the self-cleavage rises from 0.05 to 0.44.

U9G G40C showed a self-cleavage of 0.08.
